B1: Proline-serine-threonine phosphatase-interacting protein 1 (Homo sapiens), O43586 (parent)
chain: MMPQLQFKDAFWCRDFTAHTGYEVLLQRLLDGRKMCKDMEELLRQRAQAEERYGKELVQIARKAGGQTEINSLRASFDSLKQQMENVGSSHIQLALTLREELRSLEEFRERQKEQRKKYEAVMDRVQKSKLSLYKKAMESKKTYEQKCRDADDAEQAFERISANGHQKQVEKSQNKARQCKDSATEAERVYRQSIAQLEKVRAEWEQEHRTTCEAFQLQEFDRLTILRNALWVHSNQLSMQCVKDDELYEEVRLTLEGCSIDADIDSFIQAKSTGTEPPAPVPYQNYYDREVTPLTSSPGIQPSCGMIKRFSGLLHGSPKTTSLAASAASTETLTPTPERNEGVYTAIAVQEIQGNPASPAQEYRALYDYTAQNPDELDLSAGDILEVILEGEDGWWTVERNGQRGFVPGSYLEKL
partner: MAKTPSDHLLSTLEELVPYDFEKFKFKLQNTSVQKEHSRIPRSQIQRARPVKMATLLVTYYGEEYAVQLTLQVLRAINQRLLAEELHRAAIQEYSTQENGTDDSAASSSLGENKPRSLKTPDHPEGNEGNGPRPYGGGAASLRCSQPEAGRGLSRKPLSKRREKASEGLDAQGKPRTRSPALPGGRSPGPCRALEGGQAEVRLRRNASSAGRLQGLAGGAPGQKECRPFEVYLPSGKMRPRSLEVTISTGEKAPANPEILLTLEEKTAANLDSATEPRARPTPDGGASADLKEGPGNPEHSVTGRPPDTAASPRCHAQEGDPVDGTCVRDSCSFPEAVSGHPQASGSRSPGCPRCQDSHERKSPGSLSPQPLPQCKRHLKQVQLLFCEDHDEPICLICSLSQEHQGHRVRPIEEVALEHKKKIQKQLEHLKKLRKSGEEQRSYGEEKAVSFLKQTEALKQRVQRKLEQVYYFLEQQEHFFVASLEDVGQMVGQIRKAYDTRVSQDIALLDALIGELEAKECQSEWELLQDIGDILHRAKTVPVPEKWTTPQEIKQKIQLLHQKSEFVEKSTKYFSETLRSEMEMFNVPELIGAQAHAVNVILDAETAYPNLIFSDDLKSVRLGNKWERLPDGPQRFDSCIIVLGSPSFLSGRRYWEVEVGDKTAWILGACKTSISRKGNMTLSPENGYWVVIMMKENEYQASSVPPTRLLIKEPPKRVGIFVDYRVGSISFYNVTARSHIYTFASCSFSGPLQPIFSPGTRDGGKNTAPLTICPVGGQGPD

Variants of: B1
Settings: with mefv_human MEFV

effect of a mutation on the interaction | Variant
increasing interaction strength | A230T
increasing interaction strength | E250Q
